To fix the notation:
B1: HLT2 peptide gel (peptide)
peptide: VLTKVKTKV[code p]PTKVEVKVLV-NH2
B2: fluorescein-labeled Fet-A (natural protein, bovine, UniProt P12763 19-359, looked up)
chain: IPLDPVAGYKEPACDDPDTEQAALAAVDYINKHLPRGYKHTLNQIDSVKVWPRRPTGEVYDIEIDTLETTCHVLDPTPLANCSVRQQTQHAVEGDCDIHVLKQDGQFSVLFTKCDSSPDSAEDVRKLCPDCPLLAPLNDSRVVHAVEVALATFNAESNGSYLQLVEISRAQFVPLPVSVSVEFAVAATDCIAKEVVDPTKCNLLAEKQYGFCKGSVIQKALGGEDVRVTCTLFQTQPVIPQPQPDGAEAEAPSAVPDAAGPTPSAAGPPVASVVVGPSVVAVPLPLHRAHYDLRHTFSGVASVESSSGEAFHVGKTPIVGQPSIPGGPVRLCPGRIRYFKI
modifications: fluorescein (from NHS-fluorescein; sites not stated)
B3: fluorescein-labeled VN (natural protein, human, UniProt P04004 20-478, looked up)
chain: DQESCKGRCTEGFNVDKKCQCDELCSYYQSCCTDYTAECKPQVTRGDVFTMPEDEYTVYDDGEEKNNATVHEQVGGPSLTSDLQAQSKGNPEQTPVLKPEEEAPAPEVGASKPEGIDSRPETLHPGRPQPPAEEELCSGKPFDAFTDLKNGSLFAFRGQYCYELDEKAVRPGYPKLIRDVWGIEGPIDAAFTRINCQGKTYLFKGSQYWRFEDGVLDPDYPRNISDGFDGIPDNVDAALALPAHSYSGRERVYFFKGKQYWEYQFQHQPSQEECEGSSLSAVFEHFAMMQRDSWEDIFELLFWGRTSAGTRQPQFISRDWHGVPGQVDAAMAGRIYISGMAPRPSLAKKQRFRHRNRKGYRSQRGHSRGRNQNSRRPSRATWLSLFSSEESNLGANNYDDYRMDWLVPATCEPIQSVFFFSGDKYYRVNLRTRRVDTVDPPYPRSIAQYWLGCPAPGHL
modifications: fluorescein (from NHS-fluorescein; sites not stated)

One experiment concerns the target bovine serum albumin (bovine, UniProt P02769 25-607). As to the kind of experiment: affinity purification with mass spectrometry.
Experiment [1] deals with BSA fluorescein isothiocyanate conjugate (bovine, UniProt P02769 25-607, fluorescein isothiocyanate conjugate (sites not given)). The experiment can be described thus: light absorption and fluorescence imaging of the gel.
The experiment “HLT2 peptide gel” has as its target B1. As to the kind of experiment: depletion from the supernatant.

This is an account of results in paper PMC9169696 (ACS applied materials & interfaces, 2021).

Square brackets hold non-standard residues; d marks the D form. Ends that are not written are not given here.

BSA fluorescein isothiocyanate conjugate, sequence (P02769 25-607): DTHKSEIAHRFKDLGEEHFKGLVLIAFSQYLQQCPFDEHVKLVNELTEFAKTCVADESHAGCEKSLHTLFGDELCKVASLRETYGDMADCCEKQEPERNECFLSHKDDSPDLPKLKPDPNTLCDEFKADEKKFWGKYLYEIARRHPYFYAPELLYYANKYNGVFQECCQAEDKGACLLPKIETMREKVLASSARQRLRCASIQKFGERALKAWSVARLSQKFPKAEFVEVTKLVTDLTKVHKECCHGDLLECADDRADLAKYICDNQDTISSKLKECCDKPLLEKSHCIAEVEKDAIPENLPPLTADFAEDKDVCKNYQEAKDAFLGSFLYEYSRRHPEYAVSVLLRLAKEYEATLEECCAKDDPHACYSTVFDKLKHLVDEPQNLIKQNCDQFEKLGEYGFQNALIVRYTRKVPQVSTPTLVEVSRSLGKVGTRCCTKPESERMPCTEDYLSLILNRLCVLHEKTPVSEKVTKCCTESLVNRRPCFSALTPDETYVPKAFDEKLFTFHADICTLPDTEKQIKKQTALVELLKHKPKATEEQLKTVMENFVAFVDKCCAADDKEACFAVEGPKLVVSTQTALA
bovine serum albumin, sequence (P02769 25-607): as above

On to B1, for which the binding result (with bovine serum albumin; in experiment [1]) was “binds” throughout.
For B2, in the experiment with HLT2 peptide gel, the “concentration adsorbed with respect to total gel volume” value is 6.8 mg/mL and the “percent of the added protein adsorbed” value was found to be 85%.
The corresponding values for B3 are 0.1 mg/mL and 87%.
